Molecular target: Cre recombinase (UniProt P06956 P06956:1-343)
Test: cell_activity; plaque formation in cotransfected 293Cre4 cells relative to homologous recombination; pCA36loxΔ gave plaques only in 293Cre cells (Table 2)
Settings: tags: stably expressed in 293Cre4 cells or from shuttle plasmid cassette (pLC2); chain copies: 4; BamHI/BglII overhangs
Description: The efficiency of Cre/lox mediated recombination was compared with that of homologous recombination, by measuring the numbers of virus plaques obtained from cotransfections of 293 cells versus the numbers obtained following cotransfections of 293Cre4 cells (see, for example, U.S. patent application Ser. No. 08/473,168, filed Jun. 7, 1995; see also WO96/40955, hereby incorporated by reference).

Sequence of Cre recombinase (P06956 whole entry, one chain of several): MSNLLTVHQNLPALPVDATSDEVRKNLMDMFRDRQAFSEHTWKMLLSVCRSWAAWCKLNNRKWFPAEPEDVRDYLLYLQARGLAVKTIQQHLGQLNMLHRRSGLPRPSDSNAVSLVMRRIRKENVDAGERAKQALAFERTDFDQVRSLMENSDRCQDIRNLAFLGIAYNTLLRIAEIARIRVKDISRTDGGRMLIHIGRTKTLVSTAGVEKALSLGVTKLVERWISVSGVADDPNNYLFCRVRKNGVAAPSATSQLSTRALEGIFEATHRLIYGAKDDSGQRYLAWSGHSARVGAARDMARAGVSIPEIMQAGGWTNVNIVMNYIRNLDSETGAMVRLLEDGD

B1: loxP linker AB3233/3234 (in pBHG10lox and pCA36lox / pCA36loxΔ) (dsDNA)
DNA 1: GATCCAATAACTTCGTATAGCATACATTATACGAAGTTATAAGTACTGAATTCG
DNA 2: GATCCGAATTCAGTACTTATAACTTCGTATAATGTATGCTATACGAAGTTATTG
relative plaque formation efficiency: 35 fold

— US20040142470, “Recombinase-based system for construction of adenovirus vectors” (published 2004)
